Patent US7732133B2, “Screening methods for biologically active ligands” (Chugai Seiyaku Kabushiki Kaisha, priority 2000, dated 2010)

Target: T1, chimeric CNTF receptor (human CNTF receptor expressed in chimeric LIF receptor cell line LIG) in Ba/F3 cell line CNG (Homo sapiens, UniProt P26992+P40189+P42702)
T1 construct: from the 1st to the 372nd amino acid residues; expressed in transfected cells; host or cells: Ba/F3-derived cell line LIG transfected with pCV-CNTFR, clone CNG#203 = CNG
Assay: Growth response of chimeric CNTF receptor-expressing Ba/F3 cell line CNG (WST-8)
Type: cell-based
Conditions: 72 hours culture, WST-8 absorbance
Text: Human CNTF receptor (from the 1st to the 372nd amino acid residues; Davis, S. et al. (1991) Science, 253, 59-63) cDNA was cloned downstream of the HEF1α promoter of a mammalian expression vector, pCV, to construct human CNTF receptor (CNTFR) expression vector, pCV-CNTFR. pCV-CNTFR was linearized with Pvu I (Takara Shuzo), extracted with phenol and chloroform, and purified by ethanol precipitation.
The linearized expression gene vector was introduced into the chimeric LIF receptor-expressing cell line LIG (see section 1-13) using an electroporation apparatus (Gene Pulser: Bio Rad). The LIG cells were washed twice with Dulbecco's PBS (hereinafter referred to as PBS), and then were suspended in PBS to give a cell density of about 1×10^7 cells/mL. […]
The cells were washed twice with Media A, and were suspended in Media A to give a cell density of 5×10^4 cells/mL. […] After the culture, 10 μL/well WST-8 reagent (Cell Count Reagent SF; Nacalai Tesque) was added, and pre-reaction absorbance at a measurement wavelength of 450 nm and a control wavelength of 655 nm was measured using microplate reader (Model 3550, Bio Rad). The plate was incubated for two hours in a CO2 incubator (CO2 concentration, 5%), and post-reaction absorbance was measured as above. […]

T1 sequence (P26992 23-372, change not shown): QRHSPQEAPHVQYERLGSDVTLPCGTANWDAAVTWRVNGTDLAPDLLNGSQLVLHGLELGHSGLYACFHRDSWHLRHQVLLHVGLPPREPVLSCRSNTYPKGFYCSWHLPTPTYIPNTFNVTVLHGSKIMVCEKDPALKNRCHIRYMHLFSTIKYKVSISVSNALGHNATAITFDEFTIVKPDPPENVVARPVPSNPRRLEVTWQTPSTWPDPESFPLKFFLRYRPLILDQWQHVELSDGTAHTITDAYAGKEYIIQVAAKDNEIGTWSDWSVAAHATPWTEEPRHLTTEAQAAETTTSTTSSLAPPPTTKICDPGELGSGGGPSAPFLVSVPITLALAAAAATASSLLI
T1 sequence (P42702 45-833, change not shown): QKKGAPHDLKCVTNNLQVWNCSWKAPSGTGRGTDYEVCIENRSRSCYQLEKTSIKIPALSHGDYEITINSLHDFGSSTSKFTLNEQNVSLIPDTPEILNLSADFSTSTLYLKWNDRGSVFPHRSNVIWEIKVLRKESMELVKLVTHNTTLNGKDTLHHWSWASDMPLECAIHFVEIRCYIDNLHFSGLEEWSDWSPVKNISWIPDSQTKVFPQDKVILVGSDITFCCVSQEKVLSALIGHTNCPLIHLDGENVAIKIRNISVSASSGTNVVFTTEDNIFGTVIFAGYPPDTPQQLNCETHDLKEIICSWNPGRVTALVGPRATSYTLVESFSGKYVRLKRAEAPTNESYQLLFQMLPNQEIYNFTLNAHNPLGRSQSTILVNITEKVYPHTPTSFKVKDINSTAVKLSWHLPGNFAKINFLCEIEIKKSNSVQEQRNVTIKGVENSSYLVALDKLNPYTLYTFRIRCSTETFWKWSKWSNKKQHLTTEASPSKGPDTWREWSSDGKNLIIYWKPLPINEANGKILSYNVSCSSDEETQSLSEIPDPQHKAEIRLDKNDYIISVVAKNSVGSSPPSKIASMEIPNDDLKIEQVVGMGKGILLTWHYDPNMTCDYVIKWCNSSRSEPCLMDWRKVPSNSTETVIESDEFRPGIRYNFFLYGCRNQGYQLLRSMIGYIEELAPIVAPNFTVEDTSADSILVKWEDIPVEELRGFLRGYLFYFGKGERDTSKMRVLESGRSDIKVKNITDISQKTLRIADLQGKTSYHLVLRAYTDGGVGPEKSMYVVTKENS
T1 sequence (P40189 23-619, change not shown): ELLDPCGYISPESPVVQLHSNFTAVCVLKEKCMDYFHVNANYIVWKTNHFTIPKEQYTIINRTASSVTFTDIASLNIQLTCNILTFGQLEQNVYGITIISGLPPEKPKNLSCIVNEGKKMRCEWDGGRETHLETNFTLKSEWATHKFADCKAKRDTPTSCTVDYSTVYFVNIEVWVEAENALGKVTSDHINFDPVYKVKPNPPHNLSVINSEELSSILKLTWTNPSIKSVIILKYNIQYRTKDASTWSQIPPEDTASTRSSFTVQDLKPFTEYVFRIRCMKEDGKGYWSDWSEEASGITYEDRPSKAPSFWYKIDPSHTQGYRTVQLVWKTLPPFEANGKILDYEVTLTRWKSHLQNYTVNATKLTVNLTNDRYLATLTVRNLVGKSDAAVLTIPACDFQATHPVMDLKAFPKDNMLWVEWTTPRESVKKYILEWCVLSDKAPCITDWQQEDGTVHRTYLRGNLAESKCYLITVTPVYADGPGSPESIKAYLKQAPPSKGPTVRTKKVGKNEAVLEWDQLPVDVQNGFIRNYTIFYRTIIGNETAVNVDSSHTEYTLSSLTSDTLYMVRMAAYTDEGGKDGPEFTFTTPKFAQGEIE
T1 sequence (P40223 627-837 partner limits assumed): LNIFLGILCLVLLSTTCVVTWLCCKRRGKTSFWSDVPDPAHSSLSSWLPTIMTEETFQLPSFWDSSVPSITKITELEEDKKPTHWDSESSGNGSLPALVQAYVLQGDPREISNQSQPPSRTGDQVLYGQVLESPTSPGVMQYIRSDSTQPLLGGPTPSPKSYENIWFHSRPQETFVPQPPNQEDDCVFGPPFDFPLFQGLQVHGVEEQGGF

concentration at which an evident growth reaction was observed: ≥ 0.3 ng/mL
B1: human CNTF: human ciliary neurotrophic factor (Genzyme) (protein, UniProt P26441 1-200, looked up)
Ciliary neurotrophic factor: MAFTEHSPLTPHRRDLCSRSIWLARKIRSDLTALTESYVKHQGLNKNINLDSADGMPVASTDQWSELTEAERLQENLQAYRTFHVLLARLLEDQQVHFTPTEGDFHQAIHTLLLQVAAFAYQIEELMILLEYKIPRNEADGMPINVGDGGLFEKKLWGLKVLQELSQWTVRSIHDLRFISSHQTGIPARGSHYIANNKKM
